1 molecule from paper PMC6210652, “Virus Sensor RIG-I Represses RNA Interference by Interacting with TRBP through LGP2 in Mammalian Cells” can be followed below.

What all share (assay): EMSA; 3 uM protein, 0.5 nM siRNA, 1.5 mM Mg2+; 20 mM Tris pH 8.0, 1.5 mM MgCl2, 50 mM NaCl, 1.5 mM DTT, 100 ng/uL sonicated salmon sperm DNA, 5% glycerol, 0.4 U/mL RNasin; 30 min on ice; 9% PAGE in 0.25x TBE
Holding throughout (conditions): protein: recombinant; label: 5'-32P on guide strand; siRNA duplex 21-nt strands, 19 bp, 3' overhangs 2 nt on both strands

In one data set the target is T1, MDA5 (UniProt Q9BYX4 1-1025).
T1 sequence: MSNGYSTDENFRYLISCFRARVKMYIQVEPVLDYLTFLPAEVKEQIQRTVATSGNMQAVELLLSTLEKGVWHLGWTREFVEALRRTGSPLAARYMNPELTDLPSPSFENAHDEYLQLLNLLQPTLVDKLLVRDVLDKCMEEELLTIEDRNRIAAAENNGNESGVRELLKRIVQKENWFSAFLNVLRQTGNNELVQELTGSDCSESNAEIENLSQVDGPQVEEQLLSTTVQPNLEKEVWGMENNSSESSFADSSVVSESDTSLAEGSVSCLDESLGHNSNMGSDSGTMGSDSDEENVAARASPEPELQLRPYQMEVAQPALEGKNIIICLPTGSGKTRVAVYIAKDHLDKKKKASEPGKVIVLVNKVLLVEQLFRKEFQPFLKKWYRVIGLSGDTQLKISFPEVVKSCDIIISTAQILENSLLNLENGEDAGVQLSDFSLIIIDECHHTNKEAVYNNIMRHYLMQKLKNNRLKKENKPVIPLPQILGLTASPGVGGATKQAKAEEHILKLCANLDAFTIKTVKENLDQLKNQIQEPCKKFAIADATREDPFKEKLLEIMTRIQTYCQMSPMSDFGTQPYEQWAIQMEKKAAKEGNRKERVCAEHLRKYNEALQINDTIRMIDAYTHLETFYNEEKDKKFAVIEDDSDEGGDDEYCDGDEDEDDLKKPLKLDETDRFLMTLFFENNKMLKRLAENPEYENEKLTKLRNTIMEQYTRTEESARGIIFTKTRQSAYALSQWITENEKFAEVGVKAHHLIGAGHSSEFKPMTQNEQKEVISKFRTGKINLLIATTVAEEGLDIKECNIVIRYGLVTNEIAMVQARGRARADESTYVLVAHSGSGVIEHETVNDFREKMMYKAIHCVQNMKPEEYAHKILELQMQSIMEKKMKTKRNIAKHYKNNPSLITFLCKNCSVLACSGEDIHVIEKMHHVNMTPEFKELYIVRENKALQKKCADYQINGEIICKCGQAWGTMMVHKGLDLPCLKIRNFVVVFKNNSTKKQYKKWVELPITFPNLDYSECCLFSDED

The next data set deals with T2, LGP2 (UniProt Q96C10 1-678).
T2 sequence: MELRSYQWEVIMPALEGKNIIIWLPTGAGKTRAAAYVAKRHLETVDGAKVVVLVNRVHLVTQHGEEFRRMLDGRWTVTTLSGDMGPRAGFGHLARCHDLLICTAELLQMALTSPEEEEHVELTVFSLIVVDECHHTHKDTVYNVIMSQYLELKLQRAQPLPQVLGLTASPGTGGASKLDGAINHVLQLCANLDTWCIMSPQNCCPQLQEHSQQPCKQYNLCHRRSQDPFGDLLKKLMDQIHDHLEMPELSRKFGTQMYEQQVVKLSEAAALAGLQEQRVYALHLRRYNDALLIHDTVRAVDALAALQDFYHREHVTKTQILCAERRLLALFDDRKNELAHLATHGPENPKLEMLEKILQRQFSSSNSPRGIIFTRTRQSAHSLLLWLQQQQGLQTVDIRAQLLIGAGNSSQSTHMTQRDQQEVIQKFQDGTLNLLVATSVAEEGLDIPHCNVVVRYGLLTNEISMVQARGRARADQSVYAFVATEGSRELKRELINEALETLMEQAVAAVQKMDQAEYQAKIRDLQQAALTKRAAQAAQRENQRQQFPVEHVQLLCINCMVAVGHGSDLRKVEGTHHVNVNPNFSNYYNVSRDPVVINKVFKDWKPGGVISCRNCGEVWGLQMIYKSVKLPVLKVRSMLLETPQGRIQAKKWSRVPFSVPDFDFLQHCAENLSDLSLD

A further data set addresses T3, RIG-I (UniProt O95786 1-925).
T3 sequence: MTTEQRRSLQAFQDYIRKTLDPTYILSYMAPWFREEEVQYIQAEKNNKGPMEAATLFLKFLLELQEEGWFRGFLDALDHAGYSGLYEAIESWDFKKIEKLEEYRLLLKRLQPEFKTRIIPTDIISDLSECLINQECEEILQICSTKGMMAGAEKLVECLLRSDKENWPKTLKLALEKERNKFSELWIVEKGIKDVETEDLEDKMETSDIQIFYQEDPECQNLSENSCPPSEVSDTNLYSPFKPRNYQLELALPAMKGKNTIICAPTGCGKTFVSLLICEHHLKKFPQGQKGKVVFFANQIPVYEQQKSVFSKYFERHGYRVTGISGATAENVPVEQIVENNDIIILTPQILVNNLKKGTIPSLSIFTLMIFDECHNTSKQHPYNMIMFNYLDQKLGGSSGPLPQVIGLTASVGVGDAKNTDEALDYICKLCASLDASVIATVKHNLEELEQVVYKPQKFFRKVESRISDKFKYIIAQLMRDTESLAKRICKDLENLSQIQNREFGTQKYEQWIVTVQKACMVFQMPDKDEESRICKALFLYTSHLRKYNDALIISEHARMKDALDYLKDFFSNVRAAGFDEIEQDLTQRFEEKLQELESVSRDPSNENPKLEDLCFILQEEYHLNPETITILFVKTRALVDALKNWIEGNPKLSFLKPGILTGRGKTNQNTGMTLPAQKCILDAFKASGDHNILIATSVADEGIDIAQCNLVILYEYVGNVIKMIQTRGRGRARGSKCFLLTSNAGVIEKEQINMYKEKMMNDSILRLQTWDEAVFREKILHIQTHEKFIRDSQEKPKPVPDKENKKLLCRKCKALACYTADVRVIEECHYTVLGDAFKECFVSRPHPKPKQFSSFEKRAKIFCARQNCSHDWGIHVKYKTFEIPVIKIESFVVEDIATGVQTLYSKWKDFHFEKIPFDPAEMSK

B1: siLuc-36 (dsRNA)
RNA 1: UCUUCCAGCGGAUAGAAUGGC
RNA 2: CAUUCUAUCCGCUGGAAGAUG
In the case of B1, the values for the binding result with MDA5, with LGP2 and in the data set with RIG-I were “no binding”, “binds” and “binds”, respectively.
